# Measurements taken from patent US20140106371A1 (DUBLIN CITY UNIVERSITY, published 2014).
# Substitutions are numbered along the chain they refer to. In names and notes the source's numbering stands.
# B1: H50E (rPA-ILNm protein) (other)
# chain: RGSHHHHHHGSMAWKGEVLANNEAGQVTSIIYNPGDVITIVAAGWASYGPTQKWGPQGDREEPDQGLICHDAFCGALVMKIGNSGTIPVNTGLFRWVAPNNVQGAITLIYNDVPGTYGNNSGSFSVNIGKDQS
# B2: H50Q (rPA-ILNm protein) (other)
# chain: B1 chain with E62Q
# B3: H50P (rPA-ILNm protein) (other)
# chain: B1 chain with E62P
# B4: H50T (rPA-ILNm protein) (other)
# chain: B1 chain with E62T
# B5: H50K (rPA-ILNm protein) (other)
# chain: B1 chain with E62K
# B6: H50L (rPA-ILNm protein) (other)
# chain: B1 chain with E62L
# B7: H50V (rPA-ILNm protein) (other)
# chain: B1 chain with E62V
# B8: H50A (rPA-ILNm protein) (other)
# chain: AWKGEVLANNEAGQVTSIIYNPGDVITIVAAGWASYGPTQKWGPQGDREAPDQGLICHDAFCGALVMKIGNSGTIPVNTGLFRWVAPNNVQGAITLIYNDVPGTYGNNSGSFSVNIGKDQS
# notes: not shown: N-terminal RGS-6HIS tag and added vector residues (pQE30)
# B9: H50F (rPA-ILNm protein) (other)
# chain: B8 chain with A50F
# notes: as for B8
# B10: H50S (rPA-ILNm protein) (other)
# chain: B8 chain with A50S
# notes: as for B8
# B11: H50R (rPA-ILNm protein) (other)
# chain: B8 chain with A50R
# notes: as for B8
# Biological target: T1, asialotransferrin (human, UniProt P02787 20-698, N-linked glycans desialylated with neuraminidase (Clostridium perfingens), exposing terminal LacNAc (β1,4-linked galactose); partially desialylated by paragraph 70)
# T1 construct: Same polypeptide as transferrin; differs only in glycans; also called AsT
# Test: qualitative ELLA
# T1 sequence (P02787 20-698 limits assumed): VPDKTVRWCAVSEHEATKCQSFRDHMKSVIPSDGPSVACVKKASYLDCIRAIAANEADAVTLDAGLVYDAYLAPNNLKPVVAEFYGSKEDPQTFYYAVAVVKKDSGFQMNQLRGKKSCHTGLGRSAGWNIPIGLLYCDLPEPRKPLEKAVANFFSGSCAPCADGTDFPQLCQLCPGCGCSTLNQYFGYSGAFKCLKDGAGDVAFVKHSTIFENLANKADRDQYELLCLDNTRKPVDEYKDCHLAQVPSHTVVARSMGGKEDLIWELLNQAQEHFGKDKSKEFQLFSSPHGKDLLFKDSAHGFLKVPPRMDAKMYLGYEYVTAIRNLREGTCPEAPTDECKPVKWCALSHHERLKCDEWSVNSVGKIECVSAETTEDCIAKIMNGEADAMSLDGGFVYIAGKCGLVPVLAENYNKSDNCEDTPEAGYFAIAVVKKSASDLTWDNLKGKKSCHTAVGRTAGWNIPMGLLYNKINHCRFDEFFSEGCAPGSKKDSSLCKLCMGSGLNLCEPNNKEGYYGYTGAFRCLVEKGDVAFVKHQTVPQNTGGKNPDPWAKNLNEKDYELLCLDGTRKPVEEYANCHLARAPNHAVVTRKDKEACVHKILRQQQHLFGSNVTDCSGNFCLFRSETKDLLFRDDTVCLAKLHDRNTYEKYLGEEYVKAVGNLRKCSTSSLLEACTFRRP
row,Binder,binding result
1,B1,no binding (tested: 2 µg mL^-1)
2,B2,no binding (tested: 2 µg mL^-1)
3,B3,no binding (tested: 2 µg mL^-1)
4,B4,no binding (tested: 2 µg mL^-1)
5,B5,no binding (tested: 2 µg mL^-1)
6,B6,no binding (tested: 2 µg mL^-1)
7,B7,no binding (tested: 2 µg mL^-1)
8,B8,no binding (tested: 2 µg mL^-1)
9,B9,no binding (tested: 2 µg mL^-1)
10,B10,no binding (tested: 2 µg mL^-1)
11,B11,no binding (tested: 2 µg mL^-1)
